Data set [1] has as its system Pseudomonas fluorescens phosphinothricin dehydrogenase (PPTDH, PfGluDH; WP_150701510.1) mutant A164G_R205K_T332A, SEQ ID No.1. The data set is classed as biochemical.
For another data set, the system named is CP(=O)(O)CCC(=O)C(=O)O. The experiment in a line: cells, lysate or membranes named. The following applies: pH 7.0; 40.0 °C.

With `CP(=O)(O)CCC(=O)C(=O)O` [PPO, 2-carbonyl-4-(hydroxymethylphosphono)butyric acid], in data set [1], the “catalytic efficiency (kcat/Km) for PPO, increase compared with the wild type” value worked out at 145.83 times.

For orientation: Km means the substrate concentration at which the rate is half of its maximum. Usually kcat stands for the number of substrate molecules converted per active site and unit of time at saturation. As a reminder, the kcat/Km is the turnover number divided by the Michaelis constant. In the case of “Pseudomonas fluorescens phosphinothricin dehydrogenase (PPTDH, PfGluDH; NCBI accession number WP_150701510.1), wild type (Pseudomonas azerbaijanoccidentalis)”, in the data set with CP(=O)(O)CCC(=O)C(=O)O, the Michaelis-Menten constant (Km) came out at 6.12 ± 0.32 mM, the kcat was 7.47 ± 0.22 s⁻¹ and the kcat/Km was found to be 1220 M⁻¹ s⁻¹.

The values above are taken from patent US12152264B2, “Phosphinothricin dehydrogenase mutant, genetically engineered bacterium and one-pot multi-enzyme synchronous directed evolution method” (ZHEJIANG UNIVERSITY OF TECHNOLOGY, priority 2020, dated 2024).
